Laboratory results: patent US20030007968A1, “Methods of inducing organ transplant tolerance and correcting hemoglobinopathies” (priority 2001, published 2003)
Values belong to the molecule of their own block, whether it stands above or below them.

Legend:
[1] = system: C57BL/6 (B6) recipient mice; test: Congenic T cell-depleted bone marrow transplant after single busulfan dose, donor chimerism by flow cytometry; assay type: in vivo, mouse; conditions: busulfan 0, 10, 20, 30 mg/kg i.p. one day before 2×10^7 congenic T cell-depleted bone marrow cells
Experimental: Bone marrow preparation and treatment regimens.
Similar results were achieved when the busulfan was administered six or twelve hours before the administration of the T cell-depleted bone marrow cells.

[2] = with marrow rescue; cited from earlier work
[3] = biological target: T1, CD80Ig (Homo sapiens, UniProt P33681); test: BIAcore surface plasmon resonance equilibrium and kinetic binding to immobilized CD80Ig; conditions: for koff / kon: immobilized CD80Ig, means±standard deviation from three experiments
T1 construct: Ig (immunoglobulin fusion partner)
T1 sequence (P33681 with tags, fused parts or gaps limits assumed): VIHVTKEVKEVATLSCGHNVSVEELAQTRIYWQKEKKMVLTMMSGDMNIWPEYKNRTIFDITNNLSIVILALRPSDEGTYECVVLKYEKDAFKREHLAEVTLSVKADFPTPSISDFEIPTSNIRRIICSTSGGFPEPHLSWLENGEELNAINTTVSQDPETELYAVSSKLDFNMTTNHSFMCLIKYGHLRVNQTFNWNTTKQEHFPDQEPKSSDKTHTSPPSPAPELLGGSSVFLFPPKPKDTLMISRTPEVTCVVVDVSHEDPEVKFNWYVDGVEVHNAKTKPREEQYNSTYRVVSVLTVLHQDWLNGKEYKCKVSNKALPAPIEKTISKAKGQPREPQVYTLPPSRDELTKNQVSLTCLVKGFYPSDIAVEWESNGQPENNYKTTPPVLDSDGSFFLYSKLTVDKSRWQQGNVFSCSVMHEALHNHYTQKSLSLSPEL
From the text: (§1) To synthesize and screen soluble CTLA4 mutant molecules with altered affinities for a B7 molecule (e.g. CD80, CD86), a two-step strategy was adopted. The experiments entailed first generating a library of mutations at a specific codon of an extracellular portion of CTLA4 and then screening these by BIAcore analysis to identify mutants with altered reactivity to B7. The Biacore assay system (Pharmacia, Piscataway, N.J.) uses a surface plasmon resonance detector system that essentially involves covalent binding of either CD80Ig or CD86Ig to a dextran-coated sensor chip which is located in a detector. The test molecule can then be injected into the chamber containing the sensor chip and the amount of complementary protein that binds can be assessed based on the change in molecular mass which is physically associated with the dextran-coated side of the sensor chip; the change in molecular mass can be measured by the detector system.
(§2) COS cells were transfected with individual miniprep purified plasmid DNA and propagated for several days. Three day conditioned culture media was applied to BIAcore biosensor chips (Pharmacia Biotech AB, Uppsala, Sweden) coated with soluble CD80Ig or CD86Ig. The specific binding and dissociation of mutant proteins was measured by surface plasmon resonance (O'Shannessy, D. J., et al., 1997 Anal. Biochem. 212:457-468). All experiments were run on BIAcore™ or BIAcore™ 2000 biosensors at 25° C. Ligands were immobilized on research grade NCM5 sensor chips (Pharmacia) using standard N-ethyl-N′-(dimethylaminopropyl) carbodiimidN-hydroxysuccinimide coupling (Johnsson, B., et al. (1991) Anal. Biochem. 198: 268-277; Khilko, S. N., et al.(1993) J. Biol. Chem 268:5425-15434).
(§3) BIAcore analysis conditions and equilibrium binding data analysis were performed as described in J. Greene et al. 1996 J. Biol. Chem. 271:26762-26771 and in U.S. patent application Ser. Nos. 09/579,927, and 60/214,065 which are herein incorporated by reference.
(§4) Senosorgram baselines were normalized to zero response units (RU) prior to analysis. Samples were run over mock-derivatized flow cells to determine background RU values due to bulk refractive index differences between solutions. Equilibrium dissociation constants (Kd) were calculated from plots of Req versus C, where Req is the steady-state response minus the response on a mock-derivatized chip, and C is the molar concentration of analyte. Binding curves were analyzed using commercial nonlinear curve-fitting software (Prism, GraphPAD Software).
(§5) Experimental data were first fit to a model for a single ligand binding to a single receptor (1-site model, i.e., a simple langmuir system, A+B AB), and equilibrium […] constants (Kd=[A]·[B]\[AB]) were calculated from the equation R=Rmax·C/(Kd+C). Subsequently, data were fit to the simplest two-site model of ligand binding (i.e., to a receptor having two non-interacting independent binding sites as described by the equation R=Rmax1·C\(Kd1+C)+Rmax2·C\(Kd2+C).
(§6) The goodness-of-fits of these two models were analyzed visually by comparison with experimental data and statistically by an F test of the sums-of-squares.
(§7) Association and disassociation analyses were performed using BIA evaluation 2.1 Software Pharmacia). Association rate constants kon were calculated in two ways, assuming both homogenous single-site interactions and parallel two-site interactions. For single-site interactions, kon values were calculated according to the equation Rt=Req(1−exp^−ks(t-t0), where Rt is a response at a given time, t; Req is the steady-state response; to is the time at the start of the injection; and ks=dR/dt=kon·Ckoff, where C is a concentration of analyte, calculated in terms of monomeric binding sites. For two-site interactions kon values were calculated according to the equation Rt=Req1(1−exp^−ks1(t-t0)+Req2(1−exp^ks2(t-t0). For each model, the values of kon were determined from the calculated slope (to about 70% maximal association) of plots of ks versus C. […]

[4] = biological target: T2, CD86Ig (Homo sapiens, UniProt P42081); test: BIAcore surface plasmon resonance equilibrium and kinetic binding to immobilized CD86Ig; conditions: for koff / kon: immobilized CD86Ig, means±standard deviation from three experiments; for slower “off” rate than wild type CTLA4Ig: screening of COS culture media samples over immobilized CD86Ig
T2 construct: Ig (immunoglobulin fusion partner)
T2 sequence (P42081 with tags, fused parts or gaps limits assumed): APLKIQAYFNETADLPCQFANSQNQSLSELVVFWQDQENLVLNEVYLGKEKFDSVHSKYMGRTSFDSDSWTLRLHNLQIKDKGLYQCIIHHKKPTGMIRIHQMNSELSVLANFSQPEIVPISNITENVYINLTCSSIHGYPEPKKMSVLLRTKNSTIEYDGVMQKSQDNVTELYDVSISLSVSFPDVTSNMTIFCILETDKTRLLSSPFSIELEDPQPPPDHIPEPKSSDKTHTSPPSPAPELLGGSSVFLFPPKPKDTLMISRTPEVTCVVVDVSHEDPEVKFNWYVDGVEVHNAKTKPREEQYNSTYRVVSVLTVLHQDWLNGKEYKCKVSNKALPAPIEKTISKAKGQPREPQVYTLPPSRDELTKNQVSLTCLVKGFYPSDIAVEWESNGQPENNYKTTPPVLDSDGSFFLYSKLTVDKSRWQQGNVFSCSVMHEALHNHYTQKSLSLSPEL
From the text: as §1, §2, §3, §4, §5, §6, §7

[5] = biological target: T3, CD80Ig (UniProt P33681 35-242, limits assumed); test: SPR, immobilized CD80Ig
T3 construct: Immobilized on the BIAcore chip by amine coupling; also called soluble CD80Ig
T3 sequence (looked up): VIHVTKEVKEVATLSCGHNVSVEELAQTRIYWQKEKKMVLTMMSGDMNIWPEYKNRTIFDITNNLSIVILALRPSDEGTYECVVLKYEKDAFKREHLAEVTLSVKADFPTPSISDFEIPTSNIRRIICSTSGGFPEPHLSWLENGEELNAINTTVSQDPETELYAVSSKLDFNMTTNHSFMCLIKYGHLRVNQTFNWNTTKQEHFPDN

[6] = biological target: T4, CD86Ig (UniProt P42081 24-247, limits assumed); test: SPR, immobilized CD86Ig
T4 construct: Immobilized on the BIAcore chip by amine coupling; also called soluble CD86Ig
T4 sequence (looked up): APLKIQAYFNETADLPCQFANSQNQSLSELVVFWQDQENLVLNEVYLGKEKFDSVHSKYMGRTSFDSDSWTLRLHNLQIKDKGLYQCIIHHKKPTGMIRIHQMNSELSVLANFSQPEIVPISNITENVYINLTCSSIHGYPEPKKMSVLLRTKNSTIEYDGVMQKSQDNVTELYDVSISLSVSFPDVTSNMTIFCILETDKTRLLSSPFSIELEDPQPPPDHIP

[7] = biological target: T4, CD86Ig; test: SPR, immobilized CD86Ig, monomer against dimer (L104EA29YIg)
[8] = biological target: T3, CD80Ig; test: SPR (BIAcore), CD80Ig immobilized, purified monomeric analyte
[9] = biological target: T4, CD86Ig; test: SPR (BIAcore), CD86Ig immobilized, purified monomeric analyte
[10] = biological target: T3, CD80Ig; test: SPR (BIAcore), equilibrium, CD80Ig immobilized, purified monomeric analyte
[11] = biological target: T4, CD86Ig; test: SPR (BIAcore), equilibrium, CD86Ig immobilized, purified monomeric analyte

Molecule: CS(=O)(=O)OCCCCOS(C)(=O)=O [busulfan]
- levels of donor hematopoietic chimerism versus dose [1]: directly proportional to the administered busulfan dose
- LD50 [2]: 136 mg/kg

Molecule: CTLA4XC120S: single chain (monomeric) CTLA4 extracellular domain with cysteine 120 to serine mutation [reference compound]
- koff [3]: 230 ± 10 (× 10^−3) S^−1
- kon [3]: 12.0 ± 1.0 (× 10^5) M^−1 S^−1
- koff [4]: 840 ± 55 (× 10^−3) S^−1
- kon [4]: 16.5 ± 0.5 (× 10^5) M^−1 S^−1

Molecule: L104EA29WIg: double-site CTLA4 mutant Ig fusion, L104E and alanine +29 to tryptophan
- slower “off” rate than wild type CTLA4Ig [4]: approximately 4 fold

Results, then the molecule that gave them:

- slower “off” rate than wild type CTLA4Ig [4]: approximately 4 fold
Molecule: L104EA29LIg: double-site CTLA4 mutant Ig fusion, L104E and alanine +29 to leucine

- slower “off” rate than wild type CTLA4Ig [4]: approximately 4 fold
Molecule: L104EA29TIg: double-site CTLA4 mutant Ig fusion, L104E and alanine +29 to threonine

- fold higher affinity than CTLA4XC120S [5]: ~2 fold
- fold slower rate of dissociation than CTLA4XC120S [5]: ~3 fold
- fold higher affinity than CTLA4XC120S [6]: ~2 fold
- fold slower rate of dissociation than CTLA4XC120S [6]: ~3 fold
- fold lower binding affinity than the respective dimer [7]: 35 to 80 fold
- koff [8]: 0.071 s⁻¹
- kon [8]: 830000 M⁻¹ s⁻¹
- koff [9]: 0.3 s⁻¹
- kon [9]: 1.14e+06 M⁻¹ s⁻¹
- Kd [10]: 85 nM
- Kd [11]: 267 nM
B1: L104EA29YXC120S (receptor)
chain: MHVAQPAVVLASSRGIASFVCEYASPGKYTEVRVTVLRQADSQVTEVCAATYMMGNELTFLDDSICTGTSSGNQVNLTIQGLRAMDTGLYICKVELMYPPPYYEGIGNGTQIYVIDPEPSPDSD
notes: it was 'prepared in an identical manner' to CTLA4XC120S; also called monomeric L104EA29Y extracellular domain

- koff [3]: 71 ± 5 (× 10^−3) S^−1
- kon [3]: 8.3 ± 0.26 (× 10^5) M^−1 S^−1
- higher affinity than CTLA4XC120S to CD80Ig ([3]; monomeric proteins): approximately 2 fold
- slower rate of dissociation from CD80Ig than CTLA4XC120S ([3]; monomeric proteins): approximately 3 fold
- koff [4]: 300 ± 10 (× 10^−3) S^−1
- kon [4]: 11.4 ± 1.6 (× 10^5) M^−1 S^−1
- higher affinity than CTLA4XC120S to CD86Ig ([4]; monomeric proteins): approximately 2 fold
- slower rate of dissociation from CD86Ig than CTLA4XC120S ([4]; monomeric proteins): approximately 3 fold
B2: L104EA29YXC120S: single chain (monomeric) L104EA29Y extracellular domain with cysteine 120 to serine mutation (protein)
chain: B1 chain
